# Patent US20030190739A1, “Tankyrase2 materials and methods” (priority 1999, published 2003)
# Test: Poly(ADP-ribose) polymerase activity assay (32P-NAD+, SDS-PAGE, autoradiography)
# Type: biochemical
# Conditions: 250 ng protein, 10 min at room temperature, 2.5 μM unlabeled NAD+
# Procedure: For poly(ADP-ribose) polymerase activity assays, reagents were obtained from Sigma unless otherwise indicated. PARP1A/TANK2B (250 ng) protein was incubated for 10 min at room temperature in Assay buffer (total volume of 20 μL) [100 mM Tris-HCl, pH 8.0, 10 mM MgCl2, 10% glycerol, 1.5 mM DTT (Boehringer Mannheim/Roche Molecular Biochemicals), 2.5 μM unlabeled NAD^+, 16.7 μg/mL E. coli Strain B DNA, and 0.33 μCi γ-[^32P]-NAD^+ (NEN, Boston, Mass.). Reactions were stopped by boiling in SDS running buffer and separated by SDS-polyacrylamide gel electrophoresis (SDS-PAGE). Autoradiography was used to visualize labeled protein. Addition of poly(ADP-ribose) polymers to protein substrate results in an increase in molecular weight of the protein, and consequently causes the protein to run higher on SDS PAGE. Also, the level of poly(ADP-ribose) polymers added to the protein substrate can vary with each single protein molecule, resulting in labeled proteins with different molecular weights, which appears on the autoradiography film as a ladder or smear [for example, see Smith et al. Science 282:2484-7 (1998)]. […] The PARP1A/TANK2B poly(ADP-ribose) polymerase reaction produced a ladder of labeled protein from approximately 136 kDa to 250 kDa.
substance,measurement,value
PARP1A/TANK2B: Fusion protein containing aa 1-662 of PARP1 fused upstream of aa 996-1385 of TANK2 (SEQ ID NO:178),intrinsic poly(ADP-ribose) polymerase activity,possessed intrinsic poly(ADP-ribose) polymerase activity
